In publication PMC12343972 (Nature Communications, 2025):

T1: S. cerevisiae Rad50-E1235Q (S. cerevisiae, UniProt P12753, E1235Q)
T1 sequence: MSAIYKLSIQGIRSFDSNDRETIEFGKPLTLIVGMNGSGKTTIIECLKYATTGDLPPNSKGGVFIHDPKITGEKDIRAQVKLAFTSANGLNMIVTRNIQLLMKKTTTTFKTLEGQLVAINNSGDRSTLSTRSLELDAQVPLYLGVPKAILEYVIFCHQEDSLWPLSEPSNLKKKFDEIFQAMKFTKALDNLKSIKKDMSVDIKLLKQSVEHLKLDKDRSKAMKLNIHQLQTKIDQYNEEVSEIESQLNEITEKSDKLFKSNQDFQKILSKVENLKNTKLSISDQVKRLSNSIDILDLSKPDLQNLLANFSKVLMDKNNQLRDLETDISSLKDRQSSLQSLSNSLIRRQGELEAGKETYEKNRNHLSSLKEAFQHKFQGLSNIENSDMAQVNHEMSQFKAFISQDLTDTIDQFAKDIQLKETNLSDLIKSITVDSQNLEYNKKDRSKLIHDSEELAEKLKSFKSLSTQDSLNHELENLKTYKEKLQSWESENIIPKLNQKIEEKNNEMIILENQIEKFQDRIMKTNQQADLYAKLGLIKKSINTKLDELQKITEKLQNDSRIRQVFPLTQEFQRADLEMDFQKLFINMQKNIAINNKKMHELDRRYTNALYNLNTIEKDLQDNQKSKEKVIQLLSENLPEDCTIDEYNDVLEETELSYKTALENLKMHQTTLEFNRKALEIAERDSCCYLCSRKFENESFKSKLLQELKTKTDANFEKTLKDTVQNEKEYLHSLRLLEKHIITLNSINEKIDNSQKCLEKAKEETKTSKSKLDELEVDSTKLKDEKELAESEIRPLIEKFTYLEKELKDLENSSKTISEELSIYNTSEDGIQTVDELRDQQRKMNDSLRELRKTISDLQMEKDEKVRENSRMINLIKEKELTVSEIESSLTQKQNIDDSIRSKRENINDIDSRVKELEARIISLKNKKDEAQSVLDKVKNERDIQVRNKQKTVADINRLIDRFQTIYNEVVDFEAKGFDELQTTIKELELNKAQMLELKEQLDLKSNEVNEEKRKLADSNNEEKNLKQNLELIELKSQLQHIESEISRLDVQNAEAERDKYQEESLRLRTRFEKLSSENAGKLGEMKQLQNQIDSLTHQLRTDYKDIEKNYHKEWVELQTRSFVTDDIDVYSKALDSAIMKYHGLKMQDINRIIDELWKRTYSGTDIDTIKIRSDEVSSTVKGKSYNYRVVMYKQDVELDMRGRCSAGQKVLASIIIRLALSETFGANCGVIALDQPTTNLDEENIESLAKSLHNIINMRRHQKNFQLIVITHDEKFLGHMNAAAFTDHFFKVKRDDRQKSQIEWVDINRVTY

B1: S. cerevisiae Mre11 with a C-terminal 1xFLAG tag (natural protein)
chain: MDYPDPDTIRILITTDNHVGYNENDPITGDDSWKTFHEVMMLAKNNNVDMVVQSGDLFHVNKPSKKSLYQVLKTLRLCCMGDKPCELELLSDPSQVFHYDEFTNVNYEDPNFNISIPVFGISGNHDDASGDSLLCPMDILHATGLINHFGKVIESDKIKVVPLLFQKGSTKLALYGLAAVRDERLFRTFKDGGVTFEVPTMREGEWFNLMCVHQNHTGHTNTAFLPEQFLPDFLDMVIWGHEHECIPNLVHNPIKNFDVLQPGSSVATSLCEAEAQPKYVFILDIKYGEAPKMTPIPLETIRTFKMKSISLQDVPHLRPHDKDATSKYLIEQVEEMIRDANEETKQKLADDGEGDMVAELPKPLIRLRVDYSAPSNTQSPIDYQVENPRRFSNRFVGRVANGNNVVQFYKKRSPVTRSKKSGINGTSISDRDVEKLFSESGGELEVQTLVNDLLNKMQLSLLPEVGLNEAVKKFVDKDEKTALKEFISHEISNEVGILSTNEEFLRTDDAEEMKALIKQVKRANSVRPTPPKENDETNFAFNGNGLDSFRSSNREVRTGSPDITQSHVDNESRITHISQAESSKPTSKPKRVRTATKKKIPAFSDSTVISDAENELGDNNDAQDDVDIDENDIIMVSTDEEDASYGLLNGRKTKTKTRPAASTKTASRRGKGRASRTPKTDILGSLLAKKRK
B2: 83-mer dsDNA (cryo-EM) (dsDNA)
DNA 1: TTGATAAGAGGTCATTTTTGCGGATGGCTTAGAGCTTAATTGCTGAATCTGGTGCTGTAGCTCAACATGTTTTAAATATGCAA
DNA 2: TTGCATATTTAAAACATGTTGAGCTACAGCACCAGATTCAGCAATTAAGCTCTAAGCCATCCGCAAAAATGACCTCTTATCAA

Experiments:
[1] = target: T1, S. cerevisiae Rad50-E1235Q; test: cryo-EM structure
[2] = target: Rad50 E1235Q (MREQ complex);Mre11 (Saccharomyces cerevisiae;Saccharomyces …, UniProt P12753;P32829 1-1312;1-692, E1235Q|); test: cryo-EM 3.2 A

| Binder | binding result [1] | binding result [2] |
| --- | --- | --- |
| B1 | binds | – |
| B2 | – | binds |
